Source: IntAct's records for PubMed 33986552

B1: Mannose-1-phosphate guanylyltransferase regulatory subunit alpha (Homo sapiens), Q96IJ6-1 (parent)
chain: MLKAVILIGGPQKGTRFRPLSFEVPKPLFPVAGVPMIQHHIEACAQVPGMQEILLIGFYQPDEPLTQFLEAAQQEFNLPVRYLQEFAPLGTGGGLYHFRDQILAGSPEAFFVLNADVCSDFPLSAMLEAHRRQRHPFLLLGTTANRTQSLNYGCIVENPQTHEVLHYVEKPSTFISDIINCGIYLFSPEALKPLRDVFQRNQQDGQLEDSPGLWPGAGTIRLEQDVFSALAGQGQIYVHLTDGIWSQIKSAGSALYASRLYLSRYQDTHPERLAKHTPGGPWIRGNVYIHPTAKVAPSAVLGPNVSIGKGVTVGEGVRLRESIVLHGATLQEHTCVLHSIVGWGSTVGRWARVEGTPSDPNPNDPRARMDSESLFKDGKLLPAITILGCRVRIPAEVLILNSIVLPHKELSRSFTNQIIL

Variants of: B1
Conditions: with GMPPB
In the case of E85K;Q247A, the “effect of a mutation on the interaction” value is reported as “with no effect”.
In the case of R318E, the “effect of a mutation on the interaction” value is reported as “disrupting interaction”.
With W350A;R352A the “effect of a mutation on the interaction” value was “disrupting interaction”.
With E396R the “effect of a mutation on the interaction” value was “with no effect”.
